Reference: publication PMC13503762 (Nature Communications, 2026)

Target: SARS-CoV-2 M protein (purified, in LMNG/CHS detergent) (SARS-CoV-2, UniProt P0DTC5)
Experiment: cryo-EM structure
Conditions: both partners purified

B1: long conformation Fab (lcFab) (Fab, V domains shown)
VH: EVQLQQSGAELVRPGSSVKISCKGSGYVFSNYWMNWVKQRPGQGLEWIGQIYPGDGDTNYNGKFKGKATLTADKSSSTAYMQLSSLTSEDSAVYFCASGYLGENYVMDFWGQGTSVTVSS
VL: DIVLTQSPASLTVSLGQRATISCRASESVDSFGNSFMHWYQQKPGQPPKLLIYRASNLESGIPARFSGSGSRTDFTLTINPVEADDVATYYCQQSSEDPYTFGGGTKLEIK
notes: also called Fab targeting M_(long)
  binding result: binds
